Test results as given in patent US20090062512A1, “Comparative ligand mapping from MHC class I positive cells” (priority 2000, published 2009).
Values joined by “and” are separate entries in the source; they are usually repeats but may differ in a detail not shown here. Identical values can stand only once. Like-named read-outs stand apart in the source and are kept apart here.

Key:
Type in all cases: cell-based
[1] = target: A*0201 class I MHC molecules in cells infected with the PR8 strain of influenza A virus (Homo sapiens, UniProt P04439, D140Y/D185E/D98H/E176V/E277Q/G131W/G231S/I119V/I121R/I166T/I218V/L300P/L318F/N151K/N90K/P208A/P217A/Q86G/Q94H/R138H/R169H/T345S)
[2] = target: B*0702 class I MHC molecules in cells infected with the PR8 strain of influenza A virus (Homo sapiens, UniProt P01889)
[3] = target: sHLA-A*0201 from MCF-7, MDA-MB-231, BT-20 and MCF10A (Homo sapiens, UniProt P04439, D140Y/D185E/D98H/E176V/E277Q/G131W/G231S/I119V/I121R/I166T/I218V/L300P/L318F/N151K/N90K/P208A/P217A/Q86G/Q94H/R138H/R169H/T345S); assay: MS comparative analysis of sHLA-A*0201 peptides, breast cancer cell lines vs nontumorigenic MCF10A; settings: for FOLD INCREASE BT-20 over MCF10A / FOLD INCREASE MCF-7 over MCF10A / FOLD INCREASE MDA-MB-231 over MCF10A: peptide epitope presented on sHLA-A*0201; for FOLD INCREASE BT-20 over MCF10A: BT-20 vs nontumorigenic MCF10A; for FOLD INCREASE MCF-7 over MCF10A: MCF-7 vs nontumorigenic MCF10A; for FOLD INCREASE MDA-MB-231 over MCF10A: MDA-MB-231 vs nontumorigenic MCF10A
[4] = PR8B0702: presentation by sHLA B*0702, influenza PR8 infected vs uninfected cells

Substance | Fold Increase [1] | also measured
KAPPAPLAA | Unique | 
FIQTQQLHAA | Unique | 
APEEHPVLL (listed as Homo sapiens) |  | Fold Increase [2, 4]: 1.92
RLDDVSNDV | 2.55 | 
GLDIDGIYRV | 1.95 | 
RPGLKNNL |  | Fold Increase [2]: 1.5
RLYPWGVVEV | 2.79 | 
GIDSSSPEV | Unique | 
YLDKVRALE | Unique | 
SIIGRLLEV | 56.92 | 
PKFEVIEKPQA |  | Fold Increase [2]: 3.6
TLWPEVQKL | 2.97 | 
KLQEFLQTL | 2.3 | 
GLDKQIQEL | 4.09 | 
GVYGDVHRV | 2.9 | 
LVFQPVAEL |  | Fold Increase [2]: 4.33
ALNDHFVKL | 23.02 | 
HLNEKRRF |  | Fold Increase [2]: 2.02
RVEPLRNEL |  | Fold Increase [2]: 1.95
RPPPIGAEV |  | Fold Increase [2]: 2.9
ALLDKLYAL | 3.1 | 
SMTLAIHEI | 2.11 | 
GLAKLIADV | 2.91 | 
GLMTTVHAIT | 2.5 | 

Substance | Fold Increase [1] | also measured
LLDVVHPA | 33.09 | 
KLEEIIHQI | 2.08 | 
APKRPPSAF |  | Fold Increase [2]: 1.82
GMYIFLHTV | 2.32 | 
TLAKYLMEL | 6.81 | 
AIIGGTFTV | 4.17 | 
AQYEHDLEVA |  | FOLD INCREASE BT-20 over MCF10A [3]: 8; FOLD INCREASE MCF-7 over MCF10A [3]: 34; FOLD INCREASE MDA-MB-231 over MCF10A [3]: 2
GLLDPSVFHV | 2.17 | 
TLYEAVREV |  | FOLD INCREASE BT-20 over MCF10A [3]: 7.9; FOLD INCREASE MCF-7 over MCF10A [3]: None; FOLD INCREASE MDA-MB-231 over MCF10A [3]: 2.3
ALASHLIEA | 1.67 | 
LLDANLNIKI | 2.78 | 
GVAESIHLWEV | 2.89 | 
APAGRKVGL |  | Fold Increase [2]: 1.5
LLQEVEHQL (listed as Homo sapiens) |  | presentation by HLA A*0201 of tumorigenic vs nontumorigenic cell lines ([3]; MCF-7, MDA-MB-231, BT-20 vs MCF10A): found only in the MCF-7 peptide pool
ILGYTEHQV | 23.91 | 
TPEQIFQN |  | Fold Increase [2]: 1.51
LLPGENINLL |  | Fold Increase [2]: 7.13
LLDVTPLSL | 9.68 | 
SMMDVDHQI | 3.58 | 
GPREAFRQL |  | Fold Increase [2]: 6.03
ALQELLSKGL | 2.8 | 
KIADFGWSV | 2.26 | 
GLIDGRLTI | 1.67 | 
KVFDPVPVGV | 1.74 | 

Substance | Fold Increase [1] | also measured
RLIDLGVGL | 2.03 | 
TIAQLHAV | Unique | 
GPLDIEWLI (listed as Homo sapiens) |  | Fold Increase [2, 4]: 2.2
YPFKPPKVAF |  | Fold Increase [2]: 3.27
GLQDFDLLRV | 2.29 | 
NLGSPRPL |  | Fold Increase [2]: 5.6
TQFVRFDSD |  | Fold Increase [2]: 1.64
APGAPPRTL |  | Fold Increase [2]: 1.5
GLMTTVHAITATQ | Unique | 
GLATDVQTV | 3.5 | 
ITAPPSRVL |  | Fold Increase [2]: 1.98
ALSDGVHKI | 1.88 and 2.36 | 
FAITAIKGV | 3.49 | 
YQFTGIKKY |  | Fold Increase [2]: 2.3
SPAKIHVF |  | Fold Increase [2]: 2.8
FLFNTENKL | 1.85 | 
EPRPPHGEL |  | Fold Increase [2]: 2.7
FLAEEGFYKF | 2.98 | 
SPPSKPTVL |  | Fold Increase [2]: 1.9
GLMTTVHAITA | 3.2 | 
TLDEYTTRV | 3.74 | 
FLGRINEI | 1.99 | 
ALVEIGPRFVL | 10.83 | 
GPRSSLRVL |  | Fold Increase [2]: 3.16

Substance | Fold Increase [1] | also measured
AMIELVERL | 1.81 | 
KLDPTKTTL | 2.93 | 
FLLEKGYEV | 1.81 | 
RLWPKIQGL | Unique | 
TLAEIAKVEL | 3.32 | 
SLWSIISKV | 3.06 | 
TLQEVFERATF | Unique | 
LLLDVPTAAV | 1.95 | 
IIMLEALERV | 13.68 | 
APRGTGIVSA |  | Fold Increase [2]: 2.2
GLWDKFSEL | 2.59 | 
TLIGLSIKV | 2.28 | 
GLMTTVHAITAT | Unique | 
FLASESLIKQIPR | Unique | 
KPQDYKKR |  | Fold Increase [2]: 2.9
KLDEGNSL | 4.32 | 
RPQGGQDIL |  | Fold Increase [2]: 2.24
GMASVISRL | Unique | 
APPPPPKAL |  | Fold Increase [2]: 2.29
SPVPSRPL |  | Fold Increase [2]: 2.91
NDHFVKL | 7.75 | 
YMEEIYHRI | 3.98 | 
VMDSKIVQV | 22.84 | 
KLMELHGEGSS | Unique | 
